# Experiments:
# [1] = molecular target: neuraminidase (N1) of influenza A virus A/Hawaii/66/2019 (H1N1) (influenza A virus A/Hawaii/66/2019 (H1N1))
# [2] = molecular target: neuraminidase (N1) of influenza A virus A/Idaho/07/2018 (H1N1) (influenza A virus A/Idaho/07/2018 (H1N1))
# [3] = molecular target: neuraminidase (N1) of influenza A virus A/Illinois/45/2019 (H1N1) (influenza A virus A/Illinois/45/2019 (H1N1))
# [4] = molecular target: neuraminidase (N1) of influenza A virus A/Michigan/45/2015 (H1N1) (influenza A virus A/Michigan/45/2015 (H1N1))
# [5] = molecular target: neuraminidase (N1) of influenza A virus A/Puerto Rico/1934 (H1N1) (influenza A virus A/Puerto Rico/8/34 (H1N1)) (UniProt P03468)
# [6] = molecular target: neuraminidase (N1) of influenza A virus A/Victoria/2570/2019 (H1N1) (influenza A virus A/Victoria/2570/2019 (H1N1))
# [7] = molecular target: neuraminidase (N2) of influenza A virus A/Cambodia/E0826360/2020 (H3N2) (influenza A virus A/Cambodia/E0826360/2020 (H3N2))
# [8] = molecular target: neuraminidase (N2) of influenza A virus A/Darwin/6/2021 (H3N2) (influenza A virus A/Darwin/6/2021 (H3N2))
# [9] = molecular target: neuraminidase (N2) of influenza A virus A/HongKong/4801/2014 (H3N2) (influenza A virus A/HongKong/4801/2014 (H3N2))
# [10] = molecular target: neuraminidase (N2) of influenza A virus A/Kansas/14/2017 (H3N2) (influenza A virus A/Kansas/14/2017 (H3N2))
# [11] = molecular target: neuraminidase (N2) of influenza A virus A/Michigan/173/2020 (H3N2) (influenza A virus A/Michigan/173/2020 (H3N2))
# [12] = molecular target: neuraminidase (N2) of influenza A virus A/SouthAustralia/34/2019 (H3N2) (influenza A virus A/SouthAustralia/34/2019 (H3N2))
# [13] = molecular target: neuraminidase (N2) of influenza A virus A/Tasmania/503/2020 (H3N2) (influenza A virus A/Tasmania/503/2020 (H3N2))
# [14] = molecular target: neuraminidase (N2) of influenza A virus A/Victoria/361/2011 (H3N2) (influenza A virus A/Victoria/361/2011 (H3N2))
# [15] = molecular target: neuraminidase of influenza B virus B/Brisbane/35/2018 (Victoria) (influenza B virus B/Brisbane/35/2018 (Victoria))
# [16] = molecular target: neuraminidase of influenza B virus B/Brisbane/60/2008 (Victoria) (influenza B virus B/Brisbane/60/2008 (Victoria))
# [17] = molecular target: neuraminidase of influenza B virus B/Colorado/6/2017 (Victoria) (influenza B virus B/Colorado/6/2017 (Victoria))
# [18] = molecular target: neuraminidase of influenza B virus B/Laos/0080/2016 (Victoria) (influenza B virus B/Laos/0080/2016 (Victoria))
# [19] = molecular target: neuraminidase of influenza B virus B/Lee/1940 (Ancestral) (influenza B virus B/Lee/1940 (Ancestral)) (UniProt P03474)
# Sequence of UniProt P03474 (P03474 whole entry): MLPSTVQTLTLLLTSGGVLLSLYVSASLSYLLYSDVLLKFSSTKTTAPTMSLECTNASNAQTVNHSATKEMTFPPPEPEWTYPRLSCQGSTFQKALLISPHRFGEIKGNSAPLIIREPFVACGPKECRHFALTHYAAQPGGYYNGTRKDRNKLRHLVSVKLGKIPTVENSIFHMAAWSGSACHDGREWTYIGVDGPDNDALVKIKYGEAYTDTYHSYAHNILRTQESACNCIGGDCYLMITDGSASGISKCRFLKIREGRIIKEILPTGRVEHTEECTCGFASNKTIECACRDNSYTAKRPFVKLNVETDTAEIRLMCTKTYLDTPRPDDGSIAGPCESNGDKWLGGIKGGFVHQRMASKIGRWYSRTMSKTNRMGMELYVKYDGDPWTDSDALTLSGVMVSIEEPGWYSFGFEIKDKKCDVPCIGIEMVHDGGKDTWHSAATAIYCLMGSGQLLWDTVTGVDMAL
# [20] = molecular target: neuraminidase of influenza B virus B/Phuket/3073/2013 (Yamagata) (influenza B virus B/Phuket/3073/2013 (Yamagata))
# [21] = molecular target: neuraminidase of influenza B virus B/Texas/6/2011 (Yamagata) (influenza B virus B/Texas/6/2011 (Yamagata))
# [22] = molecular target: neuraminidase of influenza B virus B/Utah/9/2014 (Yamagata) (influenza B virus B/Utah/9/2014 (Yamagata))
# [23] = molecular target: neuraminidase of influenza B virus B/Washington/02/2019 (Victoria) (influenza B virus B/Washington/02/2019 (Victoria))
# [24] = molecular target: recombinant N2 NA A/Hong Kong/2671/2019 (N245 glycan) (influenza A virus H3N2 A/Hong Kong/2671/2019)
# [25] = molecular target: recombinant N2 NA A/Hong Kong/2671/2019 (N245 glycan) (influenza A virus H3N2 A/Hong Kong/2671/2019); assay: SPR
Substance,In vitro neutralization IC50; virus A/Hawaii/66/2019 (H1N1); mAb as IgG [1] [µg/mL],In vitro neutralization IC50; virus A/Idaho/07/2018 (H1N1); mAb as IgG [2] [µg/mL],In vitro neutralization IC50; virus A/Illinois/45/2019 (H1N1); mAb as IgG [3] [µg/mL],In vitro neutralization IC50; virus A/Michigan/45/2015 (H1N1); mAb as IgG [4] [µg/mL],In vitro neutralization IC50; virus A/Puerto Rico/1934 (H1N1); mAb as IgG [5] [µg/mL],In vitro neutralization IC50; virus A/Victoria/2570/2019 (H1N1); mAb as IgG [6] [µg/mL],In vitro neutralization IC50; virus A/Cambodia/E0826360/2020 (H3N2); mAb as IgG [7] [µg/mL],In vitro neutralization IC50; virus A/Darwin/6/2021 (H3N2); mAb as IgG [8] [µg/mL],In vitro neutralization IC50; virus A/HongKong/4801/2014 (H3N2); mAb as IgG [9] [µg/mL],In vitro neutralization IC50; virus A/Kansas/14/2017 (H3N2); mAb as IgG [10] [µg/mL],In vitro neutralization IC50; virus A/Michigan/173/2020 (H3N2); mAb as IgG [11] [µg/mL],In vitro neutralization IC50; virus A/SouthAustralia/34/2019 (H3N2); mAb as IgG [12] [µg/mL],In vitro neutralization IC50; virus A/Tasmania/503/2020 (H3N2); mAb as IgG [13] [µg/mL],In vitro neutralization IC50; virus A/Victoria/361/2011 (H3N2); mAb as IgG [14] [µg/mL],In vitro neutralization IC50; virus B/Brisbane/35/2018 (Victoria); mAb as IgG [15] [µg/mL],In vitro neutralization IC50; virus B/Brisbane/60/2008 (Victoria); mAb as IgG [16] [µg/mL],In vitro neutralization IC50; virus B/Colorado/6/2017 (Victoria); mAb as IgG [17] [µg/mL],In vitro neutralization IC50; virus B/Laos/0080/2016 (Victoria); mAb as IgG [18] [µg/mL],In vitro neutralization IC50; virus B/Lee/1940 (Ancestral); mAb as IgG [19] [µg/mL],In vitro neutralization IC50; virus B/Phuket/3073/2013 (Yamagata); mAb as IgG [20] [µg/mL],further results
FNI17 Fab,0.018,0.022,0.035,0.073,0.011,0.036,24.3,> 50,0.208,0.485,33.1,2.98,5.07,0.175,0.024,0.191,0.042,0.018,0.071,0.117,In vitro neutralization IC50; virus B/Texas/6/2011 (Yamagata); mAb as IgG [21]: 0.062 µg/mL; In vitro neutralization IC50; virus B/Utah/9/2014 (Yamagata); mAb as IgG [22]: 0.392 µg/mL; In vitro neutralization IC50; virus B/Washington/02/2019 (Victoria); mAb as IgG [23]: 0.019 µg/mL; In vitro neutralization IC50; virus A/HongKong/2671/2019 (H3N2); mAb as IgG [24]: 5.07 µg/mL; Kd [25]: 2100 nM
FNI19 Fab,0.021,0.043,0.039,0.062,0.012,0.071,1.47,2.79,0.122,0.559,1.77,1.11,1.18,0.091,0.02,0.152,1.17,0.029,0.211,0.222,In vitro neutralization IC50; virus B/Texas/6/2011 (Yamagata); mAb as IgG [21]: 0.229 µg/mL; In vitro neutralization IC50; virus B/Utah/9/2014 (Yamagata); mAb as IgG [22]: 0.391 µg/mL; In vitro neutralization IC50; virus B/Washington/02/2019 (Victoria); mAb as IgG [23]: 0.063 µg/mL; In vitro neutralization IC50; virus A/HongKong/2671/2019 (H3N2); mAb as IgG [24]: 0.19 µg/mL; Kd [25]: 15.1 nM

# Source: PMC10266979
